The target of test [1] is T1, cynomolgus monkey PLD4 (cynomolgus monkey, UniProt Q96BZ4 1-506 (human entry)).
T1 construct: also called cynomolgus monkey PLD4 protein; cyno PLD4
T1 chain: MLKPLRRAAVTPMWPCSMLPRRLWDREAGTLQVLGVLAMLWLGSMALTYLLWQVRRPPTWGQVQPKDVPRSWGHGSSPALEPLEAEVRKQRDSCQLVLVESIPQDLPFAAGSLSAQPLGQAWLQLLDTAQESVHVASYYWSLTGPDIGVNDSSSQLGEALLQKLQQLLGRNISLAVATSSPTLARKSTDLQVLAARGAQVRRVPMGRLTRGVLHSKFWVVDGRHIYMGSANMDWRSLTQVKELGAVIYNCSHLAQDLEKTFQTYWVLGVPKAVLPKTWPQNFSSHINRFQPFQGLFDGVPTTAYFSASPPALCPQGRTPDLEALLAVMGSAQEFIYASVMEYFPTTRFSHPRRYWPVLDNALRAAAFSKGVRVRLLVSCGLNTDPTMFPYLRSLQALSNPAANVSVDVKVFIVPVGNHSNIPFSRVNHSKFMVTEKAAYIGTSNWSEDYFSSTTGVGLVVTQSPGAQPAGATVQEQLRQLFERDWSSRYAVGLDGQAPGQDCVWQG
In words: FACS, hybridoma culture supernatant on cynomolgus monkey PLD4-CT125 cells; non-binding implied (8C11 is not among the seven). A general note: Flow cytometry measures light scatter and fluorescence of single cells or particles in a stream.

Test [2] deals with T2, human PLD4 (phospholipase D4) protein (UniProt Q96BZ4 1-506).
T2 chain: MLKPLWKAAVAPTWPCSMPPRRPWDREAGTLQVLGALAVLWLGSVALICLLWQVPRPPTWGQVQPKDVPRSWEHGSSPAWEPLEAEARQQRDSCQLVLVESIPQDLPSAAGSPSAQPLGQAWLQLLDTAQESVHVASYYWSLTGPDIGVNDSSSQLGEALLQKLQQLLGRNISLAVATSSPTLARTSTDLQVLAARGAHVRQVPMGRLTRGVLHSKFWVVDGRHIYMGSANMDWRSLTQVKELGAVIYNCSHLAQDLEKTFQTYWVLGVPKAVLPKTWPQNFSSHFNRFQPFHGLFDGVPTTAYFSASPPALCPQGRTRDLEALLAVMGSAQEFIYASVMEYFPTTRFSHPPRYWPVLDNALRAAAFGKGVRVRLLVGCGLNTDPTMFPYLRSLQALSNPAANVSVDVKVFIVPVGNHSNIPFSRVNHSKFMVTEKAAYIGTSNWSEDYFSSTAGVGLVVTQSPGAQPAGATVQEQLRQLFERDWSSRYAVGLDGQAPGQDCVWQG
Description: binding to human PLD4-CT125 stable cells; apparent Kd.

Test [3] has as its target T3, human PLD4 (phospholipase D4) protein (human, UniProt Q96BZ4 1-506).
T3 construct: Type II transmembrane protein, 506 a.a; also called hPLD4; HuPLD4
T3 sequence: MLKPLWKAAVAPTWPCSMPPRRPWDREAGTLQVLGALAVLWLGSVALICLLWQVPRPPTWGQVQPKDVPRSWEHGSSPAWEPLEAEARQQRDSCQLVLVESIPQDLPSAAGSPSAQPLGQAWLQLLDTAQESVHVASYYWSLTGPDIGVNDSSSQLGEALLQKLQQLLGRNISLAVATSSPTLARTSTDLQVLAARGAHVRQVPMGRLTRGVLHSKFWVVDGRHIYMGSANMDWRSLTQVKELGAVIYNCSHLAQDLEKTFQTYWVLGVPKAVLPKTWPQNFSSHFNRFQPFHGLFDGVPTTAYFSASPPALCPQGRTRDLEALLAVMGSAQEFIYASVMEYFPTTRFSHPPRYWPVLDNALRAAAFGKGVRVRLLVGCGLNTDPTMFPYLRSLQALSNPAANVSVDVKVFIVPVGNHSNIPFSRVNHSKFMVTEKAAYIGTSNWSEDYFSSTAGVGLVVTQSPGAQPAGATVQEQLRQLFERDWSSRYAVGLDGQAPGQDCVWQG
Description: FACS titration (0.001 to 30 µg/mL) of purified antibody on human PLD4-CT125 cells, positive cell frequency fitted with GraphPad Prism (FIG. 19). The method, then: For binding ability of the purified antibody, human PLD4-CT125 expression stable cell strain was reacted to nearly 100% of the positive staining rate at low concentration to high concentration (0.001 μg/mL to 30 μg/mL) of purified PLD4 antibody concentration. The frequency of staining positive cell and the antibody were data-analyzed using Graph Pad Prism version 5 software, and the dissociation constant molar concentration (Kd value) was computed in nM unit.

The target in test [4] is T4, rhesus monkey PLD4 (rhesus monkey, UniProt Q96BZ4 1-506 (human entry)).
T4 construct: also called rhesus monkey PLD4 protein
T4 chain: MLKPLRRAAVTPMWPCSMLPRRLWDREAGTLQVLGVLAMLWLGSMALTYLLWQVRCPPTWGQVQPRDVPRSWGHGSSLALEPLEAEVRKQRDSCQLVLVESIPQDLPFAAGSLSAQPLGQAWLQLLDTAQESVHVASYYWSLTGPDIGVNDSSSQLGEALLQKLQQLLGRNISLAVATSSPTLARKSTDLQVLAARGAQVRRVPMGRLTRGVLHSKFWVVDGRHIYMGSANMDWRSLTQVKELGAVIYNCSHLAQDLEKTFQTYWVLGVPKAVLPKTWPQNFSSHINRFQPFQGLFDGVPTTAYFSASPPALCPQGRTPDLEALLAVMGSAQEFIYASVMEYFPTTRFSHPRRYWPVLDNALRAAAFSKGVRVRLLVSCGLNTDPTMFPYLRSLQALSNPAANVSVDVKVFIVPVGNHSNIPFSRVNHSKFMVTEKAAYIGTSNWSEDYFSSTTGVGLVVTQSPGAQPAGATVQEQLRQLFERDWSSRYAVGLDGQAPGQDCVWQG
Description: FACS, hybridoma culture supernatant on rhesus monkey PLD4-293T transient transfectants; non-binding implied (8C11 is not among the seven).

For a further test, the target named is T5, human PLD3 (human, UniProt Q8IV08 1-490).
T5 construct: also called human PLB3 [sic]
T5 sequence: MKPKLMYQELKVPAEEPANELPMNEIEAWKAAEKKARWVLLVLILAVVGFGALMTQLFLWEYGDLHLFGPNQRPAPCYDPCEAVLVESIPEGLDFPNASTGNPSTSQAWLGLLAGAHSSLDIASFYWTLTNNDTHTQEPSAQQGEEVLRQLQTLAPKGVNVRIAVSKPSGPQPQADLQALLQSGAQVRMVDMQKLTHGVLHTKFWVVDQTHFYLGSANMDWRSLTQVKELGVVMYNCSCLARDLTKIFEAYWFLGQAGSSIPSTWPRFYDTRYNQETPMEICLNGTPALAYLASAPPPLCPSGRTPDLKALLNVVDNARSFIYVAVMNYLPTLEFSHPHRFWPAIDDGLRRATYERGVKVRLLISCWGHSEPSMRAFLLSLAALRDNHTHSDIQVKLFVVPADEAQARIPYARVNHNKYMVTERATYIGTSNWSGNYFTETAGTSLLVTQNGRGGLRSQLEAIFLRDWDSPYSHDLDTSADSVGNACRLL
In words: FACS on 293T transfectants (FIG. 8).

The target of another test is T6, human PLD5 (human, UniProt Q8N7P1 92-536).
T6 sequence: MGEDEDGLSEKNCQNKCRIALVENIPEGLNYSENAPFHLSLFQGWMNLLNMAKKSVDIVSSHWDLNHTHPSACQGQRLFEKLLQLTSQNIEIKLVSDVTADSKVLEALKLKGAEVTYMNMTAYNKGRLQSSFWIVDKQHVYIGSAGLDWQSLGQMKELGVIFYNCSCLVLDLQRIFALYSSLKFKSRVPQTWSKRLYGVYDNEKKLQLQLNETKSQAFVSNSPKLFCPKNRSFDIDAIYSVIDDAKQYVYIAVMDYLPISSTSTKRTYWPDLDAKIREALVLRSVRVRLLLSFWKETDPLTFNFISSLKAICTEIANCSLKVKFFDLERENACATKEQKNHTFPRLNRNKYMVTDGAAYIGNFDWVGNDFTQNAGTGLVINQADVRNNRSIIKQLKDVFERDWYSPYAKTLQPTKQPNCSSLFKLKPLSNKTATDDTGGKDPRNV
Description: FACS on 293T transfectants (FIG. 8).

Test [5] deals with T1, cynomolgus monkey PLD4. In words: FACS on 293T transfectant (FIG. 9).
The target of test [6] is T4, rhesus monkey PLD4. In words: FACS, hybridoma culture supernatant on rhesus monkey PLD4-293T transient transfectants; non-binding implied (10C3 is not among the seven).
Test [7] addresses T1, cynomolgus monkey PLD4. In words: FACS, hybridoma culture supernatant on cynomolgus monkey PLD4-CT125 cells; non-binding implied (10C3 is not among the seven).
The target in test [8] is T1, cynomolgus monkey PLD4. In words: FACS, hybridoma culture supernatant on cynomolgus monkey PLD4-CT125 cells; non-binding implied (11D10 is not among the seven).
The target of test [9] is T4, rhesus monkey PLD4. Description: FACS, hybridoma culture supernatant on rhesus monkey PLD4-293T transient transfectants; non-binding implied (11D10 is not among the seven).
For test [10], the target named is T1, cynomolgus monkey PLD4. In words: FACS on cynomolgus monkey PLD4-CT125 cells (FIG. 16).
In test [11] the target is T4, rhesus monkey PLD4. Description: FACS, hybridoma culture supernatant on rhesus monkey PLD4-293T transient transfectants (FIG. 17).

B1: anti-PLD4 mouse 8C11 antibody (antibody, mouse IgG2b, V domains shown)
VH: QVQLQQSGAELVKPGASVKLSCKASGYTFTSYYLYWVRQRPGQGLEWIGLINPTNSDTIFNEKFKSKATLTVDKSSSTAYMQLSSLTSEDSAVYYCTREGGYGYGPFAYWGQGTLVTVSA
VL: DVVMTQTPLSLPVSLGDQASISCTSSQTLVHSNGNTYLHWYLQKPGQSPKLLIYKVSNRFSGVPDRFSGSGSGTDFTLKISRVEAEDLGVYFCSHSTHVPFTFGSGTKLEIKR
notes: Tested as hybridoma culture supernatant and as purified antibody
As to B1, the binding result with cynomolgus monkey PLD4 [1] and in the test with rhesus monkey PLD4 [4] was “no binding” throughout. Besides, the Kd in [2] is 0.085 nM; in test [3], ≤ 1 nM.

B2: anti-PLD4 mouse 11G9.6 antibody (antibody, V domains shown)
VH: QVQLQQPGAELVKPGTSVKMSCKASGYTFTSYWMHWVKQRPGQGLEWIGDIYPGSDSTNYNEKFKSKATLTVDTSSSTAYMQLSSLTSEDSAVYYCARGGWLDAMDYWGQGTSVTVSS
VL: DIQMTQTTSSLSASLGDRVTISCRASQDISNYLNWYQQKPDGTVKLLIYYTSRLHSGVPSRFSGSGSGTDYSLTISNLEQEDIATYFCQQGNTLPWTFGGGTKLEIKR
notes: Tested as hybridoma culture supernatant and as purified antibody; also called mp11G9.6; mp11G9.6 antibody
Take B2: the binding result with human PLD3 and with human PLD5 was “no binding” each time. Moreover, the Kd in [2] is 0.058 nM; in test [3], ≤ 1 nM.

B3: anti-PLD4 chimeric 11G9 antibody (antibody, human IgG1, kappa, V domains shown)
VH: QVQLQQPGAELVKPGTSVKMSCKASGYTFTSYWMHWVKQRPGQGLEWIGDIYPGSDSTNYNEKFKSKATLTVDTSSSTAYMQLSSLTSEDSAVYYCARGGWLDAMDYWGQGTSVTVSS
VL: DIQMTQTTSSLSASLGDRVTISCRASQDISNYLNWYQQKPDGTVKLLIYYTSRLHSGVPSRFSGSGSGTDYSLTISNLEQEDIATYFCQQGNTLPWTFGGGTKLEIKR
notes: Mouse 11G9.6 variable regions on human IgG1 heavy and human Ig kappa light constant regions; also called ch11G9.6; ch11G9.6 antibody
Consider B3, for which the binding result in the test with cynomolgus monkey PLD4 [5] was “binds”; with human PLD3, “no binding”; with human PLD5, “no binding”.

B4: anti-PLD4 mouse 10C3 antibody (antibody, mouse IgG2a, V domains shown)
VH: EVQLVESGGDLVRPGGSLKLSCAASGFSFSSYGMSWFRQTPDKRLEWVATISSGGSYIYYPESVKGRFTISRDNARNILYLQMSSLKSEDTAMYYCVRLYGGRRGYGLDYWGQGTSVTVSS
VL: EIVMTQAAFSNPVTLGTSASISCRSSKSLLHSDGITYLYWYLQKPGQSPQLLIYQMSNLASGVPDRFSSSGSGTDFTLRISRVEAEDVGVYYCAQNLELYTFGGGTKLEIKR
notes: as for B1
For the molecule B4, the binding result with rhesus monkey PLD4 [6] and in the test with cynomolgus monkey PLD4 [7] was “no binding” throughout. Further, the Kd in [2] was 0.228 nM; in [3], ≤ 1 nM.

B5: anti-PLD4 mouse 11D10 antibody (antibody, mouse IgG2b, V domains shown)
VH: EVQLVESGGDLVRPGGSLKLSCAASGFSFSSYGMSWFRQTPDKRLEWVATISSGGSYIYYPESVKGRFTISRDNARNILYLQMSSLKSEDTAMYYCVRLYGGRRGYGLDYWGQGTSVTVSS
VL: EIVMTQAAFSNPVTLGTSASISCRSSKSLLHSDGITYLYWYLQKPGQSPQLLIYQMSNLASGVPDRFSSSGSGTDFTLRISRVEAEDVGVYYCAQNLELYTFGGGTKLEIKR
notes: as for B1
As to B5, the Kd in [2] is 0.192 nM; in test [3] it was ≤ 1 nM. For the same molecule, the binding result with cynomolgus monkey PLD4 [8] and with rhesus monkey PLD4 [9] was “no binding” throughout.

B6: anti-PLD4 mouse 3B4 antibody (antibody, V domains shown)
VH: EVQLQQSGTVLSRPGASVTMSCKASGDSFTTYWMHWVKQRPGQGLEWIGAIYPGNSETSYNQKFKGKAKLTAVTSASTAYMEFTSLTNEDSAVYYCTGGYSDFDYWGQGTTLTVSS
VL: DILMTQSPSSMSVSLGDTVSITCHASQGIRSNIGWLQQKPGKSFKGLIFHGTNLEDGVPSRFSGRGSGADYSLTINSLESEDFADYYCVQYVQFPPTFGSGTKLEIRR
notes: Tested as hybridoma culture supernatant and as protein A purified antibody
Consider B6, for which the binding result with cynomolgus monkey PLD4 [10] and with rhesus monkey PLD4 [11] was “binds” throughout. For the same molecule, the Kd in [2] was 2.12 nM; in test [3] it was > 1 nM.

(Values after US20150044226A1 (SBI BIOTECH, published 2015).)
